Results reported in US20210113690A1 (BERLIN CHEMIE, published 2021).

Key:
Assay in all cases: peptide microarray, 8mer on the chip, 1 µg/mL LY75_A1, anti-human IgG Alexa 647
PWRRGWHF = target: T1, PWRRGWHF
T1 construct: LY75 8mer on the microarray
T1 peptide: PWRRGWHF
Procedure: (§1) The peptide microarray analysis was performed by LC Sciences, Houston Tex., in brief the method comprised the following steps: —Contiguous 8mer peptides of LY75 protein having […] spanning residues 216 to 1666 of the full length LY75 protein were synthesized and immobilized on a microarray chip. The chip comprised three panels such that the experiment was performed in triplicate. […] The binding assay was performed under the following conditions:—
(§2) The microarray comprising the contiguous peptides in triplicate was washed with 1 mL of binding buffer at 4° C. for 20 min. […] The array was again washed with 0.5 mL of washing buffer at 4° C. for 30 min then incubated with 25 ng/mL anti-human IgG Alexa 647 conjugate in binding buffer (pH 7.0) at 4° C. for 1 hr. The array was again washed with 0.5 mL of washing buffer at 4° C. for 30 min.

RRGWHFYD = target: T2, RRGWHFYD
T2 construct: LY75 8mer on the microarray; aa 763-770 counted from Region 3 (aa761-780)
T2 peptide: RRGWHFYD
Procedure: as §1, §2

DREFIYLR = target: T3, DREFIYLR
T3 construct: LY75 8mer on the microarray; aa 771-778 counted from Region 3 (aa761-780)
T3 peptide: DREFIYLR
Procedure: as §1, §2

EFIYLRPF = target: T4, EFIYLRPF
T4 construct: LY75 8mer on the microarray; aa 773-780 counted from Region 3 (aa761-780)
T4 peptide: EFIYLRPF
Procedure: as §1, §2

SRYPWHRF = target: T5, SRYPWHRF
T5 construct: LY75 8mer on the microarray
T5 peptide: SRYPWHRF
Procedure: as §1, §2

RYPWHRFP = target: T6, RYPWHRFP
T6 construct: LY75 8mer on the microarray
T6 peptide: RYPWHRFP
Procedure: as §1, §2

YPWHRFPV = target: T7, YPWHRFPV
T7 construct: LY75 8mer on the microarray
T7 peptide: YPWHRFPV
Procedure: as §1, §2

PWHRFPVT = target: T8, PWHRFPVT
T8 construct: LY75 8mer on the microarray
T8 peptide: PWHRFPVT
Procedure: as §1, §2

LTYSNFHP = target: T9, LTYSNFHP
T9 construct: LY75 8mer on the microarray
T9 peptide: LTYSNFHP
Procedure: as §1, §2

TYSNFHPL = target: T10, TYSNFHPL
T10 construct: LY75 8mer on the microarray
T10 peptide: TYSNFHPL
Procedure: as §1, §2

YSNFHPLL = target: T11, YSNFHPLL
T11 construct: LY75 8mer on the microarray
T11 peptide: YSNFHPLL
Procedure: as §1, §2

FTSCSERH = target: T12, FTSCSERH
T12 construct: LY75 8mer on the microarray
T12 peptide: FTSCSERH
Procedure: as §1, §2

SERHFVSL = target: T13, SERHFVSL
T13 construct: LY75 8mer on the microarray
T13 peptide: SERHFVSL
Procedure: as §1, §2

VSLCQKYS = target: T14, VSLCQKYS
T14 construct: LY75 8mer on the microarray
T14 peptide: VSLCQKYS
Procedure: as §1, §2

VKYLNNLY = target: T15, VKYLNNLY
T15 construct: LY75 8mer on the microarray
T15 peptide: VKYLNNLY
Procedure: as §1, §2

YLNNLYKI = target: T16, YLNNLYKI
T16 construct: LY75 8mer on the microarray
T16 peptide: YLNNLYKI
Procedure: as §1, §2

LNNLYKII = target: T17, LNNLYKII
T17 construct: LY75 8mer on the microarray
T17 peptide: LNNLYKII
Procedure: as §1, §2

EAVYFHQH = target: T18, EAVYFHQH
T18 construct: LY75 8mer on the microarray
T18 peptide: EAVYFHQH
Procedure: as §1, §2

VYFHQHSI = target: T19, VYFHQHSI
T19 construct: LY75 8mer on the microarray
T19 peptide: VYFHQHSI
Procedure: as §1, §2

KKLSRLTY = target: T20, KKLSRLTY
T20 construct: LY75 8mer on the microarray
T20 peptide: KKLSRLTY
Procedure: as §1, §2

LSRLTYSS = target: T21, LSRLTYSS
T21 construct: LY75 8mer on the microarray
T21 peptide: LSRLTYSS
Procedure: as §1, §2

NGSRWIQY = target: T22, NGSRWIQY
T22 construct: LY75 8mer on the microarray
T22 peptide: NGSRWIQY
Procedure: as §1, §2

GSRWIQYK = target: T23, GSRWIQYK
T23 construct: LY75 8mer on the microarray
T23 peptide: GSRWIQYK
Procedure: as §1, §2

SRWIQYKG = target: T24, SRWIQYKG
T24 construct: LY75 8mer on the microarray
T24 peptide: SRWIQYKG
Procedure: as §1, §2

RWIQYKGH = target: T25, RWIQYKGH
T25 construct: LY75 8mer on the microarray
T25 peptide: RWIQYKGH
Procedure: as §1, §2

YKGHCYKS = target: T26, YKGHCYKS
T26 construct: LY75 8mer on the microarray
T26 peptide: YKGHCYKS
Procedure: as §1, §2

YKSDQALH = target: T27, YKSDQALH
T27 construct: LY75 8mer on the microarray
T27 peptide: YKSDQALH
Procedure: as §1, §2

Measured: binding result

B1: LY75_A1 monoclonal antibody (antibody, human IgG1, kappa, V domains shown)
VH: EVQLVESGGGLVKPGGSLRLSCAASGFTYSNAWMSWVRQAPGKGLEWVGRIKSKTDGGTTDYAAPVQGRFTISRDDSKNTLYLQMNSLKTEDTAVYYCTIFGVVSFDYWGQGTLVTVSS
VL: DVQMTQSPSSLSASVGDRVTITCRASQSISDYLSWYQQRPGKAPNLLIYAASNLKTGVPSRFSGSGSGTDFTLTISTLQPEDFATYYCQQSYRSPWTFGQGTKVEIKR
notes: also called LY75A1 antibody; antibody LY75_A1
binds: all assays above
